Assay results: the DeepSol protein solubility set

Test: soluble on expression in E. coli; label from the status in PepcDB or PDB records

| Sequence | soluble on expression in E. coli |
| --- | --- |
| MIINKPSRVRPDGRGKVTGELKYMTDLSFPGMLYGKVLRSAYPHAEIVSVCTIKAEKMEGVQAVVTHKDVPGLNRFGIVIPDQPVLCEDRVRYVGDAIAAVAAETEEIAEAALELIQVEYKELEVMDSPEKALRPNAQRLHEDGNILHRAFFSNGDVEEGFQASDTVFEETYELPRQMHTYMETEGGVAVPEDDGGFTMYAGTQHGYKDRFQLARIFDIPEEKIRIVSSPMGGSFGGKDELNIQPYAALLALKSGRPVKIHQTRKESVRSGIKRHPMKITIKTGADHSGNLLAHDVKIVADTGAYATLGPAVLDFSVEHAAGPYRIPNIRTEGISVFTNNGVAGEFRGFGGNQITFALETHLDRLSGMLGIDPLELRRKNIRKPHDLGPLEHRIAPTDGAAQVLNAISKSPILKKTSRNCGYLQRGTGAAITMHGGGLGFGRMDAAGGRLSLSSEGKITASFGFEECGQGILAAIEQIVMEELGCAAEDISIVIGDTAKVPKSGSSTASRGTSMVWHAIQRLKKPFLAQLKKRAAEWSGCSAENLIPGAAGLRDKNTKALVVTYKELAEKGPLAEETAFDFPTTPDPVVGGHFLYSFGAAAVEVEVDLLTGDVKLIDCEHAIAAGPVVSPQGYRGQIEGGAAMALGYTLMEEAKMTDGRYAAENLDHYLIPGIKDVPDMKLIAIEDLMKGDVYGPRGVGEIGTIAITPAIVKAVHDAVGCWINKLPISREELLEAIDRKGLKQWT | not soluble |
| MELKDRIKAARKHAHLSQVQLAQAVGMTQTSISDLERGKSRATSFVAQIAGACGVNPLWLAEGRGEMLAERGQANAGPNASWLGAVESWDDETPLDADEIELPFYKEIELSGGKGSTVILQTGGRKLRFGKYTLRKKNIDPASAACVTVSGNSMEPVLPDGSTVGVDTSARTIKDGDMYAFDHDGQLRVKLLYRLPGGGLRIRSFNSDEHPDERYEPQEAAEHINVIGRVFWYSVLV | not soluble |
| MAHHHHHHMLIPVRCYSCGKVVGHLYELYQELLNQDHTEAEALNALRLSRMCCRRMILSHIDLADDLLPYSVPVVGSMPLINPVQGPVPRRQ | not soluble |
| AVVITDRQNRIIKVNNEFTRLSGYTFEDVKGKQPSIFASGLHKVEFYMQMWKALQDNGVWEGEVINKRKDGESITEILRIQSIRDEDNVIQFYVASFVDIS | not soluble |
| MLSLNLPVFDTKINVRNGKNVIFDVIRKRYVALTPEEWVRQHFVHFLIAHKGYPNALLANEVMVKLNGTTKRCDTVLYRRDLSARMIVEYKAPHIEITQAVFDQITRYNMVLKVDYLIVSNGMQHYCCRMDYAHQSYTFLQDIPDYNAL | not soluble |
| MLRKISLLLSICFLLHQNIAYGEDNQQSIYEKRMALYKETEQSSGIPWYYLAAMDQYERNIRSVRKDIPKKPDAIISLYFKPEIWAGPVNGNDTLPHTIALFGGLGLDGDKDGFANANNDRDLLHTAATILKKQGTSEERIKIMLWEYYRRAKTVDLITEYAQIYKHYGRINLEGNAFPLPIRSDHSYRSTFGAGRSFGGRRVHEGTDIFAGYGVPVRSTCYGIIETKGWNRLGGWRIGIRDLHNNYHYYAHLGGFSKEIQLGQIVEPGKVIGFVGSTGYGPPGTAGKFPPHLHFGMYKDNGYTEWAFDPYMHLSLWERKERANTKR | not soluble |
| MGSDKIHHHHHHENLYFQGMKQIPQDFRLIEDFFRTRRSVRKFIDRPVEEEKLMAILEAGRIAPSAHNYQPWHFLVVREEEGRKRLAPCSQQPWFPGAPIYIITLGDHQRAWKRGAGDSVDIDTSIAMTYMMLEAHSLGLGCTWVCAFDQALCSEIFDIPSHMTPVSILALGYGDPTVPPREAFNRKTIEEVVSFEKL | soluble |
| MGLQSLKEPVENSVQDEFSHFWSQHGEWVEEPNVRRGGESGVQRLVMDNGQTLYAKRQTGHIYRSLLHPLGRPTVLREREALEGLRKLGVVVPEVVFCGAERGEDNAWRALLVTVALDGFDEIEKWLAAGGRERHGELFYERMLKEVASTLARMHLGRWQHSCLYIKHVFVRVTGDGPDAKVEVALLDLEKGRRRLTAQGAAQHDMKQLRRHSSFSAADWQKLVYFYQTAFGSSIKGLES | not soluble |
| MHRDSTDIEVKRASELPENLPETTCAFANMPSGGTIILGVDENRDFEVVGVADAAALEEALISQTRNSVKPAPMIECETFTLEGKQVLVAQVNPVPLQNRPAHYRGVAYLRQSDGDYGMNDADLALVEIQKLSHSENFQFDVVPVLNSSTRDLDSVRVKSFLEAARAGSRILSKKIDDQELLETLNIVTVKGAAALEHHHHHH | not soluble |
| MADKYLTQSPAGEFVMFASDDGEVRVECRFEQETLWLPQATIANLYQITPQAVTQHIKAIYEEGELEQNATCKSYLQVQQEGSRQVSRNRLHYSLPVILAVGYRVRSPRGTQFRQWATQTLQKYLIKGFVMDDERLKNPPVGSSAVPDYFDEMLERIRDIRASERRVYLRVREIFALAADYQPSLKETTQFFQTIQNKLHFACTGHTAAELIHQRADASQPHMGLTSYKGEEVRKDDVTVAKNYLTQDEVSELNRVVNMWLDFAEDQARRRQQIFLRDWQDKLDQFLQFNDREVLQGAGKVTKKMADEKAQAEYSQFAEQQRRLKEAEGEKDIAGLLQWETEPKK | not soluble |
| MRILVNLILFSLIPLAFSNENSSSYLIARPLIFETQLKNINDNVNLHCTSWRFAAETNNLAPWKTIPAECADYVKDYLMGEGYVVDVERVSEEAKVYASSFESNGDGKDIWIFDIDETLLSNLPYYMEHGCGLEVFDHSKFDMWVEKGIAPAIAPSLKLYQKVIHLGYKVILLTGRRENHRVITVENLRNAGFHNWDKLILRSLDDRNKTATMYKSEKREEMVKEGYRIRGNSGDQWSDLLGSAMSERSFKLPNPMYYIP | soluble |
| MGSDKIHHHHHHMNRPLFDLDLLRALVMVADCGSFTTASARLHSTQSTVSQKVRRLEEIAGHRLLDRGTRDVRPTDAGVTVLSYARRMIALNDEMLEALSGATVALTIRLGVPDDFAAGRTTHALAAFKRDHPQVKLEVTCGLSRDICAAYDRGELDLVLIKQRRDSREAVVRWPEKLRWIDSARHPTIELDPVPLVVFPPRGLYRDDMIKAIEERGRRWRISFTTSSLSGIQAAVADGLGISVLPARAVTDDHVVLTDEHGGFAPIGNMDIAILHRPTADPMVSELTKALAAMLEHEPE | not soluble |
| MTVPLYKQIASLIEDSIVDGTLSIDQRVPSTNELAAFHRINPATARNGLTLLVEAGILYKKRGIGMFVSAQAPALIRERRDAAFAATYVAPLIDESIHLGFTRARIHALLDQVAESRGLYK | not soluble |
| GAHMSVIKPEMKIKLCMRGTVNGHNFVIEGEGKGNPYEGTQILDLNVTEGAPLPFAYDILTTVFQYGNRAFTKYPADIQDYFKQTFPEGYHWERSMTYEDQGICTATSNISMRGDCFFYDIRFDGTNFPPNGPVMQKKTLKWEPSTEKMYVEDGVLKGDVNMRLLLEGGGHYRCDFKTTYKAKKEVRLPDAHKIDHRIEILKHDKDYNKVKLYENAVARYSMLPSQAK | soluble |
| MQSRKRLDAELVRRKIARSREQAVEMIKDGRVHVQGFVAKKPATQVTPEASIRVEDAGLDDWASRGAHKLLGALAEFKSKGLNVSGRRALDAGASTGGFTDVLLRESASEVVAVDVGYGQLIWRLQNDARVKVLDRTNIRNLSLEITDGPCDLMVGDLSFISLKLTLPAIAACMSDGADLLPMVKPQFEVGKERLGHGGVVRDPKLRAEVTEDIALFAQQLGLSFVDVVASPLPGPSGNVEYFLWLKKDSGRSAKGLHEIHEKVAEAVQKGPQ | not soluble |
| MGSDKIHHHHHHCDLERYPLTDLSEETFWNSESNAELALTSLYRGSLTDGVEYNPSDWWSYHGMIMMEHLSDNAFDRRGENNPFFKISSGNLTADNAFIKRYWETSYKRIGYCNRFLVGIQNSSESEKKTRMIAEARFLRATQYFYLASYFKNVPLVENVLTGEEANNVTKTSQADILKWCVTEFTAAAADLPRFSAIPAGEAGRACKQAALAFLGRTCMLQKDWKSGAKAFHDIMELGDNAINANYQELFYPSTGTSNKENIFYIQYLENYLGTGLPQHALSAKDGGWSLVNPAADLYESYEFKDGTPFSYDDPRYDPSNLGKDRDPRLDYTIYYNGAIFMGTEYKMSPDYSAAKKEKLDYTSEASRTGFMMRKYFEESTPINDVQSANGLTPVIRYAEVLLGYLECLVEDNQTITQGILDETINAVRGRASVNMPPVTEVTPAKLREIVRHERRIELAMEGIRYWDIMRWGIAHEVLSQKIWGAPYPGSTQYATTTKEVDPTGNYRWYVGKRAFRNPTDYTWPIPQSEQNINPNLRD | not soluble |
| MMRTWWLCERTFRARIYVMARERIPEMTINCARERNSTFTSVPTRTWLSSTISAEYVGRNHAHTTPVPANNKDTITTIAEYHCTE | not soluble |
| MSDNYKFFRHDNCEYFPCHKVKDKETFNCLFCYCPLYFLENCGGNKSDFNGVKDCSNCLIPHSKNGYDYIINKIREVNKEKRAKNNLTLEHHHHHH | soluble |
| MGHHHHHHSHMVPSREALLGPGTTAIRCPKKLQNQNYKGHGLSKGKEREQRASIRFKTTLMNTLMDVLRHRPGWVEVKDEGEWDFYWCDVSWLRENFDHTYMDEHVRISHFRNHYELTRKNYMVKNLKRFRKQLEREAGKLEAAKCDFFPKTFEMPCEYHLFVEEFRKNPGITWIMKPVARSQGKGIFLFRRLKDIVDWRKDTRSSDDQKDDIPVENYVAQRYIENPYLIGGRKFDLRVYVLVMSVFAECLLWSGHRRQDVHLTNVAVQKTSPDYHPKKGCKWTLQRFRQYLASKHGPEAVETLFRDIDNIFVKSLQSVQKVIISDKHCFELYGYDILIDQDLKPWLLEVNASPSLTASSQEDYELKTCLLEDTLHVVDMEARLTGREKRVGGFDLMWNDGPVSREEGAPDLSGMGNFVTNTHLGCVNDRKKQLRQLFCS | soluble |
| GATDSATAAPAAAATTQVQKEAADVLQVAVQGANAMRDIQFARLALFHGQPDSAKKLTDDAAALLAADDASWAKFVKTDAKAKMIADRYVIINASIALSEDYVATPEKESAIQSANEKLAKGDQKGAIDTLRLAGIGVIENQYLMPLNQTRKAVAQSQELLKAGKYYEANLVLKGAEEGIVVDSEMLVAGN | soluble |
| MGSDKIHHHHHHMIYFLCSFYGEAEGIISYYKLRKEAVHSSFQIFSSEEIKLIISGTGKINAACAVGYIGSLKSKLSKDLFVNVGICGSRSRTVGECVFINKIKDVDTNKEFYPDILLKHDFEEGNLQTFSIPVTTGQVDDVCDMEGSAFFQSASKFFQKHEIALIKIVSDNANNVNVSGELVRNLIKKSMEKINSYIENYKRIFHEKNFLSDVCTGNIEKIVSRLRLTESQSIQLKKAAVAYKIRNGKEFDFEGFLSLEVKIKNDGRKYFSNLIGSMWK | not soluble |
| MQIDKLRGRELDQLFKAILSLRDLEECYRFFDDLCTVNEIQALAQRLEVARMLREGYTYHKIETETGASTATISRVKRCLNYGNDAYAMALDRIKEEQQQEEKEANEAVTD | not soluble |
| MAHHHHHHMDKKRSIVKKPERGSFLLDHNSECTPIKNDYLKCLKEHNNDHVSCREYSKEYFICRMDKNLLERQSLNDLGFSENETNHESRIKHFKDVYSYNVYNETMESFPKGRALKRTDTASGAVFVEEKLTQGKRDNKADMKPARGDDFLLLNLRNDKEGEQKINGKVFEITQEKKIAVKRKEEEGYLAGKEYIKTLVEKKKRHPLFSYNIFKSSNT | soluble |
